From the supplement of paper PMC12042874
± gives the uncertainty stated by the source.

Assay: amyloid nucleation score (Sup35N fusion, yeast selection) (log enrichment); library NNK3; higher = more nucleation; inactive = no reads after selection
Procedure, shortened: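 Using DiMSum, nucleation scores were taken as the log enrichment of output over input reads, centred on the mode score of non-aggregating sequences. The input and output reads came from Illumina sequencing of plasmid inserts, with sequences under 100 input reads excluded. The yeast were psi-negative, expressed Sup35N fused to peptides of 20 random codons, were induced with 100 μM copper sulfate for 24 hours, and were grown 7 days at 30°C on medium lacking adenine and uracil.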

Substance | amyloid nucleation score
GHPGNSAEADKCGHRQRRP | inactive
DRVCSSRML | inactive
RRSSARGIRYMYSLNCNGEL | inactive
NRSTWCW | inactive
EYRLVKFHSPLFQRIKSIVA | inactive
KCYNKVWELMLAYG | inactive
QVLLCNAPFRQLYVACFYCF | 0.422 ± 0.38
RGCKKLYRIKANVMYVSTVN | inactive
ITRTYNYLYTCINTFRQPSV | 0.045 ± 0.45
RSVYYRSLLGTNYCSFLLFD | inactive
SIIGKNYKFRATSINKGISM | inactive
WEGRLDCFSMRWLQMLGSND | inactive
VVLTMMHRHLYVSCKLRFCS | inactive
LGPVIS | -0.46 ± 1.7
FFCGFRKTAASHFLFLVKDW | inactive
SLVPDNAANAMRPTWINLWW | 1.84 ± 0.078
SPDVLFESKYRFWDMLSQIA | inactive
SCTVKSAGGFVSHRFNGSMG | inactive
RTSYVNLLYIMLDLLIRFRS | inactive
WSVGATWVVAFA | inactive
GLMESSCRMGLLNPIQTFTQ | 0.036 ± 0.98
SFDCRRSSRL | inactive
TYFTFSTWLRMYSGYSLVQV | inactive
ILVFILYHCCIIHLGLNLAK | inactive
VYESFLLMLFYFRSDCKKKR | inactive
VQTWWLNMCLLPRKSTYTHL | inactive

Substance | amyloid nucleation score
SFMKQIFSYARLVRISKSVG | inactive
YACMCLCELSASYKLDTMC | inactive
CDFGFRMEEESLQRR | inactive
NLWTTGIRTSPKNLYIVAFM | inactive
GEILSGITTLGVYYSYVWHL | inactive
DFVRSNNCYWCFAAFSPCFR | inactive
KFCASSCWMNYSVFGMYLSI | inactive
TDAYKLITFIFPCKYLVTVC | inactive
FNMYFCVIWLCDSFLIMCG | inactive
FVVSKLYMPRWASLLLCWRL | inactive
FAFKLWRKVQYVFHLFYPAR | 0.342 ± 0.69
VTCWMVAVELKKIHYQCIES | inactive
PGNNFKNAAESFRKAYMCRR | inactive
MVGWVWERMRHAPWE | inactive
AHKIVFELTYTVLS | inactive
SRLTAFMNYVGCRMVSGWTR | inactive
STTDRTWNGYDDILYTYLYF | inactive
FYYWVGFCAGKAEDFRDLLC | inactive
RDDNAKNVGSPRAAHTRALR | inactive
FCLNYDGGWWCRMSCVYNQG | inactive
VPQNVGVLWSRRQEAVVLVS | inactive
NQEVSTGNILGLLAVTSCRD | inactive
LTTQSGLMAGRKKFWDAELG | 0.902 ± 0.21
LLCSKARSCRVDRMKRGGWV | inactive
DQAYWKQCSMSIWYGFRRLV | inactive
ICINVESIKPMRWQAMI | inactive

Substance | amyloid nucleation score
CMTFLNIYSNGQLSGTYCLF | 1.59 ± 0.083
TMRNKMAY | inactive
TVRVYIHIYHIGFLGPMRSE | 0.889 ± 0.22
WRTFLCWYVLGPKTSFEYGR | inactive
FVCKMVMIRRGDTWKVSKVV | inactive
SNSDVN | inactive
LGDNLEGNIGLLL | inactive
VKFMMPRVDIWFKDGVRRYT | inactive
RTKIAFTRVLFATKLWNETN | inactive
YLKMLSVLKWRKNISRFVLP | inactive
NKMDSKYPGRLCLMWGW | 0.48 ± 0.19
TVLWFSC | inactive
RNKRLKLILYLHRVDEAVAE | inactive
LRVCISGYSN | inactive
FIRKSPWQRFDTHFGIIDFK | 0.778 ± 0.17
NICMAI | inactive
TRAMHSFWFESDCKY | inactive
LRYVGCTKMSGAMGARS | inactive
LISNAQA | inactive
ESIYVNPGDSL | inactive
ILIDSGSTLFSIIFQGLLLI | inactive
YKLNMLLGYLLMFTLGIHAV | inactive
SCKLSHFEVTMECLEYFWMM | inactive
TFKARSLILSLKLYANMDH | inactive
YSFRNSIDAFRLEYKKRYRF | -0.403 ± 0.93
VFHHIILRFN | inactive

Substance | amyloid nucleation score
VHSIYSTNFVLVFIPQSSVN | 1.9 ± 0.075
GCVSGRHDNTFRDYD | inactive
LKRVDEVVIDPLYREGYTER | inactive
GVLEAFLTDIIPMYGYVRVA | inactive
IFSNRGFQLCWFSYMLSVHT | inactive
LFCSYNRRGAHLAGCAR | inactive
TCIQYSKFLRA | inactive
RRNDRYVCFAMMSRRSGVYL | inactive
MYRITQGHLR | inactive
RFMWSLGSTLRWKAWADVTG | inactive
CSCQRPKAFQVQWNGG | 0.789 ± 0.14
FVISYELWAVSERNWSFEMR | inactive
GIFEFKLNSLNSNERGLRAG | inactive
AFAFYSD | inactive
SHYRIMT | inactive
LIWYRNDEWYSFLWMVYCSS | inactive
EIQSVMLYIASTFSILYLRH | inactive
WVQVRRVKIE | inactive
LNCDIVFELL | inactive
CSDATIGQNSGSHDQLNRSD | inactive
FVAADSPGVSSFKAN | inactive
IWILRKVVLRVVWMRYLGVK | inactive
YCDSVWNQNSTYHISL | inactive
IYGVSESVYWIVWANIGVLQ | inactive
GYMRSLYIRYYSRRRFRCI | inactive
GAVRMVETTMYFLFTMPSGS | 0.359 ± 0.24

Substance | amyloid nucleation score
YGCGIQGLVQWTCDTGRMHC | inactive
VVSAV | inactive
RVQMVLLMNTSFLNVLIMCI | -0.375 ± 1
FVASDLLFGVRDQSVFSLSQ | inactive
VHLWGGRGHQLVWVHVRWGV | inactive
LIDNRRFRHLLTRNVFVSHH | inactive
WAVIKLMRSERTVGVWGSNT | inactive
INHFLFYANNRYRRHILVGC | inactive
RIVEGMYLYVLS | inactive
VFGRWCFLETCMMHFTFSRY | 0.865 ± 0.22
LRVMSI | -0.964 ± 2.5
QVGQESDSCLSSIRLCFKYR | 0.163 ± 0.24
LECILADIASCIQPRAYCIS | inactive
AVMLREITNIRTKRSRNAMM | inactive
SRMTIIWVTVRISRNGTWNF | inactive
HWHMIMIKCQLEFTKEVIRA | inactive
WDIMSRYLCMYIGYTARRCM | inactive
DFFLRVMYMKWNAPL | inactive
NLSVAMRLICVTLFLVLLGI | inactive
HGKVGKRFRLGQKAYVSGLW | inactive
FTKSREWGFMDKPAINWVSC | inactive
DSCAIES | inactive
FISHRARWISDESYIICHFV | -0.067 ± 1.1
TIGGNWGHWVVVIFV | 0.064 ± 0.96
LSVLFCLDGK | inactive
MVKTFVLMTLHLGLMVRFLF | inactive

Substance | amyloid nucleation score
KFADQALTHSQYATFLTGLY | inactive
GSRVLKAWGSLSLILTSYDG | inactive
HTVVPNRVNSPCVWWLFFVW | 1.3 ± 0.11
EKFRWQSISIEVECSMAVQH | inactive
GLVNVVWMCFLGWPWLKVRS | inactive
YPSGVYKFFAASATCWIM | inactive
LNGSAHYRGCCLKRRTICWM | inactive
MFECNWAIFRREFLRLVCTV | inactive
LFSLCWRCTLLKLYCPNWCY | inactive
NVSFCDDASARANVYHLGKS | inactive
YPYCKKGWCDMKTKGRSKEG | inactive
FTKLYELSDMHISYTRS | inactive
QNNTLGVSLVTFRGLVE | inactive
GIRYQRFVRRVFHDYWR | inactive
MIWAEQGFFVRWWDLFA | inactive
SIDYADVK | inactive
VDRFRSQNKFVSNGMSLIRK | inactive
TLASQFSFLVS | inactive
MNWYRIFVVNFSCKRLYSVK | 1.64 ± 0.067
PFSRTERRFYK | -0.463 ± 1.7
DKSLFKII | inactive
LGYLRFVLIYQTCCQLTKSP | -0.617 ± 0.6
GLVLTPDEEMIRQWEMLTYG | inactive
TWQEVMNVQRTS | inactive
PGFSLFLGLRSVWKHFFCFR | inactive
